The supplement of paper PMC10126150
± gives the standard deviation of the averaged measurements.

test system: ATP; test: switch fluorescence ratio, 500 uM ATP over buffer (Cy3 cluster intensity, sum of 5 cycles each) (fold (ratio)); higher = stronger signal-on switching upon ATP binding; sequences stand for … in TCGTCGGCAGCGTCAGATGTGTATAAGAGACAGTTTTTTTTTTTTTTTTTTTTTTTTT…TC; details: aptamer strand: ATP DNA aptamer (quencher-CACCTGGGGGAGTATTGCGGAGGAAGG + anchor), 100 nM annealed; ATP concentration: 500 uM
Procedure, shortened: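 Cy3-labelled switching-strand clusters on a modified Illumina MiSeq flow-cell were annealed to 100 nM quencher-labelled ATP aptamer, imaged in selection buffer, then imaged after 15 min with 500 uM ATP at 22 °C. Five buffer/ATP cycles ran, with NaOH stripping and re-annealing between them. The fluorescence ratio is summed target-cycle over summed buffer-cycle Cy3 intensity per cluster, averaged per switch-domain sequence. Clusters outside 100-1000 RFU were excluded.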
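Note: ATP exposure 15 min at 22 °C before imaging.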

ATAAAATTGG and ATAAACGGCG are within error of each other in switch fluorescence ratio: 0.988 ± 0.034 for the first, 1.01 ± 0.024 for the second.

ATAAACGGCT and ATAAACGGGG are within error of each other in switch fluorescence ratio: 1.01 ± 0.021 for the first, 0.9917 ± 0.001 for the second.

ATAAACGTTT and ATAAACTTGG are within error of each other in switch fluorescence ratio: 1.018 ± 0.0069 for the first, 1.01 ± 0.033 for the second.

First: ATAAAGAGAG
Second: ATAAAGCGAT
The switch fluorescence ratio of the first is lower: 1.01 ± 0.023 for the first, 1.06 ± 0.023 for the second.

ATAAAGGAAG and ATAAAGTCAC are within error of each other in switch fluorescence ratio: 0.99 ± 0.011 for the first, 1.16 ± 0.18 for the second.

ATAAATGAGG and ATAAATTTTT are the same in switch fluorescence ratio: 1.01 ± 0.014 for the first, 1.01 ± 0.023 for the second.

ATAACAAACT and ATAACACGGC are the same in switch fluorescence ratio: 1.05 ± 0.012 for the first, 1.05 ± 0.1 for the second.

Compared with ATAACGCAGT, ATAACGTTCG is higher in switch fluorescence ratio: 1.0027 ± 0.00069 for the first, 1.06 ± 0.052 for the second.

Compared with ATAACGTTTT, ATAACTACTA is higher in switch fluorescence ratio: 1.02 ± 0.019 for the first, 1.06 ± 0.015 for the second.

Compared with ATAAGACCGT, ATAAGATGCC is lower in switch fluorescence ratio: 1.015 ± 0.0046 for the first, 0.963 ± 0.014 for the second.

ATAAGGAGGG and ATAAGGATAG are the same in switch fluorescence ratio: 1 ± 0.01 for the first, 1 ± 0.011 for the second.

ATAAGGATGG and ATAAGGCTTT are within error of each other in switch fluorescence ratio: 0.9788 ± 0.0034 for the first, 0.989 ± 0.029 for the second.

ATAAGGGGAT and ATAAGTGATC are within error of each other in switch fluorescence ratio: 0.983 ± 0.023 for the first, 0.981 ± 0.069 for the second.

Compared with ATAAGTGATG, ATAAGTGCAA is higher in switch fluorescence ratio: 0.995 ± 0.025 for the first, 1.06 ± 0.011 for the second.

ATAAGTTAAG and ATAATATAAC are within error of each other in switch fluorescence ratio: 0.999 ± 0.013 for the first, 1 ± 0.018 for the second.

ATAATCATTT and ATAATGCAGG are within error of each other in switch fluorescence ratio: 1.02 ± 0.021 for the first, 1 ± 0.032 for the second.

ATAATGTCGC and ATAATTAAGG are within error of each other in switch fluorescence ratio: 0.9702 ± 0.0012 for the first, 0.99 ± 0.028 for the second.

Going from ATAATTATGC to ATAATTCATC, the switch fluorescence ratio falls from 1.025 ± 0.0052 to 1 ± 0.013.

ATAATTGGCC and ATAATTGGGG are within error of each other in switch fluorescence ratio: 0.97422 ± 0.00035 for the first, 0.98 ± 0.026 for the second.

ATAATTGGGT and ATAATTTAGG are within error of each other in switch fluorescence ratio: 0.993 ± 0.022 for the first, 0.9859 ± 0.0029 for the second.

ATAATTTATT and ATAATTTCAA are within error of each other in switch fluorescence ratio: 0.996 ± 0.012 for the first, 0.999 ± 0.017 for the second.

ATAATTTGAC and ATAATTTTAG are within error of each other in switch fluorescence ratio: 1.04 ± 0.058 for the first, 0.999 ± 0.031 for the second.

ATAATTTTTT and ATACAAGGGG are the same in switch fluorescence ratio: 1.03 ± 0.063 for the first, 1.03 ± 0.033 for the second.

Compared with ATACAGGGCT, ATACATAACG is higher in switch fluorescence ratio: 1.01 ± 0.029 for the first, 1.38 ± 0.052 for the second.

ATACATTGTC and ATACCAATGA are within error of each other in switch fluorescence ratio: 0.978 ± 0.074 for the first, 1.05 ± 0.029 for the second.

Compared with ATACCAGTG, ATACCTCTTG is lower in switch fluorescence ratio: 1.12 ± 0.055 for the first, 0.992 ± 0.022 for the second.

ATACCTGGTC and ATACGAATTC are within error of each other in switch fluorescence ratio: 1.053 ± 0.0017 for the first, 1.01 ± 0.049 for the second.

ATACGCCGGT and ATACGGGGCT are within error of each other in switch fluorescence ratio: 1.013 ± 0.004 for the first, 1.03 ± 0.027 for the second.

ATACGTTTCG and ATACTACGGA are within error of each other in switch fluorescence ratio: 0.998 ± 0.03 for the first, 1.03 ± 0.062 for the second.

First: ATACTATTTT
Second: ATACTCAACA
The switch fluorescence ratio of the first is lower: 0.996 ± 0.023 for the first, 1.248 ± 0.0099 for the second.

First: ATACTCTATT
Second: ATACTGAGGC
The switch fluorescence ratio of the first is higher: 1.07 ± 0.025 for the first, 0.999 ± 0.029 for the second.

First: ATACTGGACT
Second: ATACTTATTG
The switch fluorescence ratio of the first is higher: 1.201 ± 0.0084 for the first, 0.99646 ± 0.0008 for the second.

ATAGAAGCGG and ATAGAATCAG are within error of each other in switch fluorescence ratio: 0.9684 ± 0.0029 for the first, 0.975 ± 0.038 for the second.

ATAGAATGTG and ATAGAGGAGA are within error of each other in switch fluorescence ratio: 1.007 ± 0.0082 for the first, 0.992 ± 0.048 for the second.

ATAGAGTGCG and ATAGATTAGT are within error of each other in switch fluorescence ratio: 0.957 ± 0.024 for the first, 0.996 ± 0.035 for the second.

ATAGCGCCG and ATAGCTGGTT are within error of each other in switch fluorescence ratio: 1.03 ± 0.035 for the first, 0.991 ± 0.018 for the second.

ATAGGAGTAT and ATAGGATCTT are within error of each other in switch fluorescence ratio: 1.01 ± 0.026 for the first, 0.996 ± 0.028 for the second.

ATAGGCAGAG and ATAGGCGGGA are within error of each other in switch fluorescence ratio: 1.003 ± 0.0083 for the first, 0.9932 ± 0.00079 for the second.

ATAGGGCCTT and ATAGGGGCGG are within error of each other in switch fluorescence ratio: 1.02 ± 0.05 for the first, 0.978 ± 0.035 for the second.

ATAGGGGGGA and ATAGGGGTT are within error of each other in switch fluorescence ratio: 1.01 ± 0.018 for the first, 1.021 ± 0.005 for the second.

ATAGGGTTGC and ATAGGTACGC are within error of each other in switch fluorescence ratio: 1.01 ± 0.014 for the first, 1.04 ± 0.036 for the second.

ATAGGTATGT and ATAGGTTTGG are within error of each other in switch fluorescence ratio: 0.998 ± 0.023 for the first, 0.97 ± 0.014 for the second.

ATAGGTTTGT and ATAGGTTTTA are within error of each other in switch fluorescence ratio: 0.989 ± 0.013 for the first, 0.976 ± 0.017 for the second.

ATAGTAAGTA and ATAGTAGGTA are within error of each other in switch fluorescence ratio: 0.996 ± 0.024 for the first, 0.99137 ± 0.00055 for the second.

Compared with ATAGTATGGT, ATAGTCAAAC is higher in switch fluorescence ratio: 0.9976 ± 0.0089 for the first, 1.027 ± 0.0025 for the second.

Compared with ATAGTCATAT, ATAGTCCTCC is higher in switch fluorescence ratio: 0.9978 ± 0.0017 for the first, 1.2 ± 0.0043 for the second.

ATAGTGAGTT and ATAGTGATGT are within error of each other in switch fluorescence ratio: 1 ± 0.016 for the first, 0.995 ± 0.04 for the second.

First: ATAGTGGGGC
Second: ATAGTGGGGG
The switch fluorescence ratio of the first is higher: 1.056 ± 0.0054 for the first, 0.975 ± 0.017 for the second.

ATAGTGTGGC and ATAGTTTTCC are within error of each other in switch fluorescence ratio: 0.952 ± 0.029 for the first, 1 ± 0.024 for the second.

ATATAAGCCC and ATATAAGGGT are the same in switch fluorescence ratio: 1.02 ± 0.021 for the first, 1.02 ± 0.015 for the second.
